Data on two proteins can be found in ChEMBL document CHEMBL2074236, “Renal organic cation and nucleoside transport” (Biochem Pharmacol, 2002).

Substrate in this series: Nc1ncnc2c1ccn2[C@H]1C[C@H](O)[C@@H](CO)O1
Briefly: TP_TRANSPORTER: uptake (pH 5.4) in Xenopus laevis oocytes. It counts as functional, cell-based, Oocyte.

B1: Solute carrier family 22 member 2 (Rattus norvegicus) (protein)
chain: MSTVDDILEHIGEFHLFQKQTFFLLALLSGAFTPIYVGIVFLGFTPDHHCWSPGAAKLSQRCGWSQAEELNYTVPGLGPSDEASFLSQCMRYEVDWNQSTLDCVDPLSSLAADRNQLPLGPCEHGWVYNTPGSSIVTEFNLVCAHSWMLDLFQSVVNVGFFIGAMMIGYLADRFGRKFCLLVTILINAISGALMAISPNYAWMLVFRFLQGLVSKAGWLIGYILITEFVGLGYRRMVGICYQIAFTVGLLILAGVAYVIPNWRWLQFAVTLPNFCFLLYFWCIPESPRWLISQNKIVKAMKIIKHIAKKNGKSVPVSLQNLTPDEDAGKKLNPSFLDLVRTPQIRKHTLILMYNWFTSSVLYQGLIMHMGLAGDNIYLDFFYSALVEFPAAFIIILTIDRVGRRYPWAVSNMVAGAACLASVFIPDDLQWLKITIACLGRMGITMAYEMVCLVNAELYPTYIRNLGVLVCSSMCDIGGIITPFLVYRLTDIWMEFPLVVFAVVGLVAGALVLLLPETKGKALPETIEDAENMQRPRKKKEKRIYLQVKQADRPLS
What is called Km is the substrate concentration at which the rate is half of its maximum. For B1, the Km is 212 µM.

B2: Solute carrier family 22 member 1 (Rattus norvegicus) (protein)
chain: MPTVDDVLEQVGEFGWFQKQAFLLLCLISASLAPIYVGIVFLGFTPGHYCQNPGVAELSQRCGWSQAEELNYTVPGLGPSDEASFLSQCMRYEVDWNQSTLDCVDPLSSLVANRSQLPLGPCEHGWVYDTPGSSIVTEFNLVCGDAWKVDLFQSCVNLGFFLGSLVVGYIADRFGRKLCLLVTTLVTSVSGVLTAVAPDYTSMLLFRLLQGMVSKGSWVSGYTLITEFVGSGYRRTTAILYQMAFTVGLVGLAGVAYAIPDWRWLQLAVSLPTFLFLLYYWFVPESPRWLLSQKRTTRAVRIMEQIAQKNGKVPPADLKMLCLEEDASEKRSPSFADLFRTPNLRKHTVILMYLWFSCAVLYQGLIMHVGATGANLYLDFFYSSLVEFPAAFIILVTIDRIGRIYPIAASNLVTGAACLLMIFIPHELHWLNVTLACLGRMGATIVLQMVCLVNAELYPTFIRNLGMMVCSALCDLGGIFTPFMVFRLMEVWQALPLILFGVLGLTAGAMTLLLPETKGVALPETIEEAENLGRRKSKAKENTIYLQVQTGKSSST
With B2, the Km amounted to 23 µM.
